In experiment [1] the target is T1, β16β17 (erythrocyte β-spectrin residues 1898–2083), wild type (human, UniProt P11277 1898-2083).
T1 construct: erythrocyte β-spectrin, human, residues 1898-2083 (β16 plus the incomplete 17th domain); synthetic gene (GenScript) in a modified pRSETA plasmid; source: E. coli C41(DE3), purified (Ni2+ agarose, thrombin cleavage, gel filtration)
T1 sequence (looked up): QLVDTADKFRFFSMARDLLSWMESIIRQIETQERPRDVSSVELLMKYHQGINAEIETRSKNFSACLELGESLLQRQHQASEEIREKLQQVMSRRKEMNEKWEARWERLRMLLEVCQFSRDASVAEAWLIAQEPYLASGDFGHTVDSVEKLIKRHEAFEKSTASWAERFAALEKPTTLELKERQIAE
Nature of the experiment: ITC; β16β17 at 25–50 μM in the cell titrated with 15–20 injections to 2–2.5 eq of α0α1; one-site binding model; PBS (50 mM sodium phosphate, 150 mM NaCl, pH 7.04), 25 °C; mutants only against the wild-type partner. The settings on record: both partners purified.

The target in experiment [2] is T1, β16β17 (erythrocyte β-spectrin residues …). The description is as above. The settings on record: both partners purified. This is another data set of the same source.

Numbering of substitutions follows the chain as printed. Numbers in names are those of the source.

B1: α0α1 E85A (domain or fragment, human, UniProt P02549 2-163, looked up)
chain: EQFPKETVVESSGPKVLETAEEIQARRQEVLTRYQSFKERVAERGQKLEDSYHLQVFKRDADDLGKWIMEKVNILTDKSYEDPTNIQGKYQKHQSLEAEVQTKSRLMSELEKTREERFTMGHSAHEETKAHIEELRHLWDLLLELTLEKGDQLLRALKFQQY
notes: mutant of m1; also called E26A; source: E. coli C41(DE3), purified (Ni2+ agarose, thrombin cleavage, gel filtration)
In experiment [1], B1 yielded a Ka of 1.2e+06 M⁻¹.

B2: α0α1 T92G (domain or fragment, human, UniProt P02549 2-163, looked up)
chain: B1 chain with A25E, T32G
notes: mutant of m1; also called T33G; source: E. coli C41(DE3), purified (Ni2+ agarose, thrombin cleavage, gel filtration)
In experiment [1], B2 had a Ka of 3.3e+06 M⁻¹.

B3: α0α1 F97A (domain or fragment, human, UniProt P02549 2-163, looked up)
chain: B1 chain with A25E, F37A
notes: mutant of m1; also called F38A; source: E. coli C41(DE3), purified (Ni2+ agarose, thrombin cleavage, gel filtration)
As for B3, the Ka in experiment [2] was 58000 M⁻¹.

B4: α0α1 E99G (domain or fragment, human, UniProt P02549 2-163, looked up)
chain: B1 chain with A25E, E39G
notes: mutant of m1; also called E40G; source: E. coli C41(DE3), purified (Ni2+ agarose, thrombin cleavage, gel filtration)
B4 yielded a Ka in experiment [1] of 800000 M⁻¹.

B5: α0α1 Q95A (domain or fragment, human, UniProt P02549 2-163, looked up)
chain: B1 chain with A25E, Q35A
notes: mutant of m1; also called Q36A; source: E. coli C41(DE3), purified (Ni2+ agarose, thrombin cleavage, gel filtration)
As for B5, in experiment [1], the Ka came out at 2.29e+06 M⁻¹.

B6: α0α1 V101A (domain or fragment, human, UniProt P02549 2-163, looked up)
chain: B1 chain with A25E, V41A
notes: mutant of m1; also called V42A; source: E. coli C41(DE3), purified (Ni2+ agarose, thrombin cleavage, gel filtration)
B6: the Ka in experiment [2] amounted to 100000 M⁻¹.

B7: α0α1 Y94A (domain or fragment, human, UniProt P02549 2-163, looked up)
chain: B1 chain with A25E, Y34A
notes: mutant of m1; also called Y35A; source: E. coli C41(DE3), purified (Ni2+ agarose, thrombin cleavage, gel filtration)
In experiment [2], B7 displayed a Ka of 670000 M⁻¹.

B8: α0α1 Q106A (domain or fragment, human, UniProt P02549 2-163, looked up)
chain: B1 chain with A25E, Q46A
notes: mutant of m1; also called Q47A; source: E. coli C41(DE3), purified (Ni2+ agarose, thrombin cleavage, gel filtration)
Turning to B8, the Ka in experiment [1] is 1.3e+06 M⁻¹.

B9: α0α1 T92A (domain or fragment, human, UniProt P02549 2-163, looked up)
chain: B1 chain with A25E, T32A
notes: mutant of m1; also called T33A; source: E. coli C41(DE3), purified (Ni2+ agarose, thrombin cleavage, gel filtration)
B9 had a Ka in experiment [1] of 670000 M⁻¹.

B10: α0α1 Q95G (domain or fragment, human, UniProt P02549 2-163, looked up)
chain: B1 chain with A25E, Q35G
notes: mutant of m1; also called Q36G; source: E. coli C41(DE3), purified (Ni2+ agarose, thrombin cleavage, gel filtration)
Molecule B10 yielded a Ka in experiment [1] of 2e+06 M⁻¹.

B11: α0α1 R104A (domain or fragment, human, UniProt P02549 2-163, looked up)
chain: B1 chain with A25E, R44A
notes: mutant of m1; also called R45A; source: E. coli C41(DE3), purified (Ni2+ agarose, thrombin cleavage, gel filtration)
Regarding B11, the Ka in experiment [2] worked out at 6.7e+06 M⁻¹.

B12: α0α1 Q106G (domain or fragment, human, UniProt P02549 2-163, looked up)
chain: B1 chain with A25E, Q46G
notes: mutant of m1; also called Q47G; source: E. coli C41(DE3), purified (Ni2+ agarose, thrombin cleavage, gel filtration)
Molecule B12 came in with a Ka in experiment [1] of 200000 M⁻¹.

B13: α0α1 R87G (domain or fragment, human, UniProt P02549 2-163, looked up)
chain: B1 chain with A25E, R27G
notes: mutant of m1; also called R28G; source: E. coli C41(DE3), purified (Ni2+ agarose, thrombin cleavage, gel filtration)
In turn, B13 registered a Ka in experiment [1] of 4e+06 M⁻¹.

B14: α0α1 E85G (domain or fragment, human, UniProt P02549 2-163, looked up)
chain: B1 chain with A25G
notes: mutant of m1; also called E26G; source: E. coli C41(DE3), purified (Ni2+ agarose, thrombin cleavage, gel filtration)
The molecule B14 showed a Ka in experiment [1] of 830000 M⁻¹.

B15: α0α1 E103G (domain or fragment, human, UniProt P02549 2-163, looked up)
chain: B1 chain with A25E, E43G
notes: mutant of m1; also called E44G; source: E. coli C41(DE3), purified (Ni2+ agarose, thrombin cleavage, gel filtration)
Molecule B15 yielded a Ka in experiment [1] of 220000 M⁻¹.

B16: α0α1 E99A (domain or fragment, human, UniProt P02549 2-163, looked up)
chain: B1 chain with A25E, E39A
notes: mutant of m1; also called E40A; source: E. coli C41(DE3), purified (Ni2+ agarose, thrombin cleavage, gel filtration)
Molecule B16 displayed a Ka in experiment [1] of 900000 M⁻¹.

B17: α0α1 L91A (domain or fragment, human, UniProt P02549 2-163, looked up)
chain: B1 chain with A25E, L31A
notes: mutant of m1; also called L32A; source: E. coli C41(DE3), purified (Ni2+ agarose, thrombin cleavage, gel filtration)
Consider B17, for which the Ka in experiment [2] is 1.3e+06 M⁻¹.

B18: α0α1 Q88A (domain or fragment, human, UniProt P02549 2-163, looked up)
chain: B1 chain with A25E, Q28A
notes: mutant of m1; also called Q29A; source: E. coli C41(DE3), purified (Ni2+ agarose, thrombin cleavage, gel filtration)
In experiment [2], B18 had a Ka of 1e+06 M⁻¹.

B19: α0α1 E103A (domain or fragment, human, UniProt P02549 2-163, looked up)
chain: B1 chain with A25E, E43A
notes: mutant of m1; also called E44A; source: E. coli C41(DE3), purified (Ni2+ agarose, thrombin cleavage, gel filtration)
Molecule B19 displayed a Ka in experiment [1] of 810000 M⁻¹.

B20: α0α1 Y94L (domain or fragment, human, UniProt P02549 2-163, looked up)
chain: B1 chain with A25E, Y34L
notes: mutant of m1; also called Y35L; source: E. coli C41(DE3), purified (Ni2+ agarose, thrombin cleavage, gel filtration)
For B20, the Ka in experiment [2] came out at 4.4e+06 M⁻¹.

These data come from article PMC9082959, “Mechanism of Assembly of the Non-Covalent Spectrin Tetramerization Domain from Intrinsically Disordered Partners” (Journal of molecular biology, 2013).
